In patent US20190276796A1 (Seagen, published 2019):

What was measured:
murine FcγRIV = molecular target: T1, murine FcγRIV (murine, UniProt A0A0B4J1G0 21-249); assay: competition flow cytometry on CHO DG-44 cells expressing murine FcγRIV; competitor 200 nmol/L Alexa Fluor 488 labeled anti-CD70 IgG1
T1 construct: also called muFcγRIV; murine Fcγ receptor (CD16)
T1 sequence: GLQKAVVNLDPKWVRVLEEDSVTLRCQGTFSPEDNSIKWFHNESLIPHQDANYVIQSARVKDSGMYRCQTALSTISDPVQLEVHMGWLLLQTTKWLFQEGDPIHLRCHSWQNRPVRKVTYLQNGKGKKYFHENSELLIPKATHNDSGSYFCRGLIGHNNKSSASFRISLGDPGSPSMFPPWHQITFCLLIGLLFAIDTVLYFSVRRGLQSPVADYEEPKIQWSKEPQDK

human FcγRIIIA V158 = molecular target: T2, human FcγRIIIA V158 (human, UniProt P08637 17-254); assay: competition flow cytometry on CHO DG-44 cells expressing human FcγRIIIA V158; competitor 50 nmol/L Alexa Fluor 488 labeled anti-CD70 IgG1
T2 construct: whole, on cells; also called huFcγRIIIA V158; human Fcγ receptor (CD16)
T2 sequence (P08637 17-254 F176V): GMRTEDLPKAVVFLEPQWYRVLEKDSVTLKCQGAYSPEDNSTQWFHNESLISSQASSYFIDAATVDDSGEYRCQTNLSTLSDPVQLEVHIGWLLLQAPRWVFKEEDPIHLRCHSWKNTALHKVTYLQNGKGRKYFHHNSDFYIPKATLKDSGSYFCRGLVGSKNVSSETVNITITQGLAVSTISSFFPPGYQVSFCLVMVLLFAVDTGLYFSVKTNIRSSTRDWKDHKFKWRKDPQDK

- EC50 (murine FcγRIV): 369 nM
- EC50 (human FcγRIIIA V158): 113 nM
B1: control h1F6 antibody (humanized IgG1 anti-CD70 monoclonal antibody, from CHO DG44 cells cultured without fucose analog; core fucosylated) (antibody)
chain 1: QVQLVQSGAEVKKPGASVKVSCKASGYTFTNYGMNWVRQAPGQGLKWMGWINTYTGEPTYADAFKGRVTMTRDTSISTAYMELSRLRSDDTAVYYCARDYGDYGMDYWGQGTTVTVSSASTKGPSVFPLAPCSRSTSESTAALGCLVKDYFPEPVTVSWNSGALTSGVHTFPAVLQSSGLYSLSSVVTVPSSNFGTQTYTCNVDHKPSNTKVDKTVERKCCVECPPCPAPPVAGPSVFLFPPKPKDTLMISRTPEVTCVVVDVSHEDPEVQFNWYVDGVEVHNAKTKPREEQFNSTFRVVSVLTVVHQDWLNGKEYKCKVSNKGLPAPIEKTISKTKGQPREPQVYTLPPSREEMTKNQVSLTCLVKGFYPSDIAVEWESNGQPENNYKTTPPMLDSDGSFFLYSKLTVDKSRWQQGNVFSCSVMHEALHNHYTQKSLSLSPGK
chain 2: DIVMTQSPDSLAVSLGERATINCRASKSVSTSGYSFMHWYQQKPGQPPKLLIYLASNLESGVPDRFSGSGSGTDFTLTISSLQAEDVAVYYCQHSREVPWTFGQGTKVEIKRTVAAPSVFIFPPSDEQLKSGTASVVCLLNNFYPREAKVQWKVDNALQSGNSQESVTEQDSKDSTYSLSSTLTLSKADYEKHKVYACEVTHQGLSSPVTKSFNRGEC
